These results are taken from patent US20180236141A1.

Some results are limits rather than exact numbers.

This assay addresses integrin α2β1 on platelets (UniProt P17301). Nature of the assay: cell-based or functional assay.

Turning to Collagen type I (ligand), the platelet aggregation was above 90%.
